Measured values published in article PMC7856178 (Archives of biochemistry and biophysics, 2020).
Where two headings read alike, the source gives them in different places.

Columns and labels:
Assay in all cases: FRET or BRET
FRET or BRET [1] = target: the molecule itself
FRET or BRET [2] = target: the molecule itself; remark: listed apart in the source
FRET or BRET [3] = target: the molecule itself; remark: listed apart in the source

B1: CYP2E1 labeled with BODIPY-618 maleimide (enzyme, human, UniProt P05181 1-493, looked up)
chain: MSSMWRQVHSSWNLPPGPFPLPIIGNLFQLELKNIPKSFTRLAQRFGPVFTLYVGSQRMVVMHGYKAVKEALLDYKDEFSGRGDLPAFHAHRDRGIIFNNGPTWKDIRRFSLTTLRNYGMGKQGNESRIQREAHFLLEALRKTQGQPFDPTFLIGCAPCNVIADILFRKHFDYNDEKFLRLMYLFNENFHLLSTPWLQLYNNFPSFLHYLPGSHRKVIKNVAEVKEYVSERVKEHHQSLDPNCPRDLTDCLLVEMEKEKHSAERLYTMDGITVTVADLFFAGTETTSTTLRYGLLILMKYPEIEEKLHEEIDRVIGPSRIPAIKDRQEMPYMDAVVHEIQRFITLVPSNLPHEATRDTIFRGYLIPKGTVVVPTLDSVLYDNQEFPDPEKFKPEHFLNENGKFKYSDYFKPFSTGKRVCAGEGLARMELFLLLCAILQHFNLKPLVDPKDIDLSPIHIGFGCIPPRYKLCVIPRS
modifications: BODIPY-618 maleimide label, 2:1 label to protein ratio (labelled residues not stated)
B1 was tested, and the “(Lipid/CYP2E1)50%” value (FRET or BRET [1]) was 604 molar ratio, the “(Lipid/CYP2E1)50%” value (FRET or BRET [2]) was 176 molar ratio and the “(Lipid/CYP2E1)50%” value (FRET or BRET [3]) was 14400 molar ratio.
